Reference: publication PMC6036645

Biological target: Leptospira interrogans thermolysin encoded by LIC13322, prothermolysin fragment PepSY-M4 (74 kDa) (Leptospira interrogans)
Assay: SEC

Leptospira interrogans thermolysin encoded by LIC13322, prothermolysin fragment PepSY-M4 (74 kDa) (enzyme)
stoichiometry N: 2
